± gives the uncertainty stated by the source.
B1: Far upstream element-binding protein 1, residues 98 to 169; numbered along this chain, Q96AE4 (parent)
chain: RSVMTEEYKVPDGMVGFIIGRGGEQISRIQQESGCKIQIAPDSGGLPERSCMLTGTPESVQSAKRLLDQIVE

Variants of: B1
Assay: abundance fitness (aPCA) (normalised: wild type 0, dead -1); higher = more abundant; growth selection in yeast, the domain comes from the species named
Details: Homo sapiens

Going from RSVMTEEYKVPDGMVGFIIGRGDEQISRIQQESGCKIQIAPDSGGLPERSCMLTGTPESVQSAKRLLDQIVE [G23D] to RSVMTEEYKVPDGMVGFIIGRGFEQISRIQQESGCKIQIAPDSGGLPERSCMLTGTPESVQSAKRLLDQIVE [G23F], the abundance fitness falls from -0.051 ± 0.045 to -0.179 ± 0.052.

Going from RSVMTEEYKVPDGMVGFIIGRGEEQISRIQQESGCKIQIAPDSGGLPERSCMLTGTPESVQSAKRLLDQIVE [G23E] to RSVMTEEYKVPDGMVGFIIGRGIEQISRIQQESGCKIQIAPDSGGLPERSCMLTGTPESVQSAKRLLDQIVE [G23I], the abundance fitness falls from -0.011 ± 0.033 to -0.17 ± 0.054.

First: RSVMTEEYKVPDGMVGFIIGRGLEQISRIQQESGCKIQIAPDSGGLPERSCMLTGTPESVQSAKRLLDQIVE [G23L]
Second: RSVMTEEYKVPDGMVGFIIGRGAEQISRIQQESGCKIQIAPDSGGLPERSCMLTGTPESVQSAKRLLDQIVE [G23A]
The abundance fitness of the first is lower: -0.174 ± 0.03 for the first, -0.045 ± 0.029 for the second.

RSVMTEEYKVPDGMVGFIIGRGHEQISRIQQESGCKIQIAPDSGGLPERSCMLTGTPESVQSAKRLLDQIVE [G23H] and RSVMTEEYKVPDGMVGFIIGRGCEQISRIQQESGCKIQIAPDSGGLPERSCMLTGTPESVQSAKRLLDQIVE [G23C] are within error of each other in abundance fitness: -0.159 ± 0.058 for the first, -0.101 ± 0.035 for the second.

RSVMTEEYKVPDGMVGFIIGRLGEQISRIQQESGCKIQIAPDSGGLPERSCMLTGTPESVQSAKRLLDQIVE [G22L] and RSVMTEEYKVPDGMVGFIIGRIGEQISRIQQESGCKIQIAPDSGGLPERSCMLTGTPESVQSAKRLLDQIVE [G22I] are within error of each other in abundance fitness: -0.099 ± 0.028 for the first, -0.09 ± 0.048 for the second.

Compared with RSVMTEEYKVPDGMVGFIIGRWGEQISRIQQESGCKIQIAPDSGGLPERSCMLTGTPESVQSAKRLLDQIVE [G22W], RSVMTEEYKVPDGMVGFIIGREGEQISRIQQESGCKIQIAPDSGGLPERSCMLTGTPESVQSAKRLLDQIVE [G22E] is higher in abundance fitness: -0.15 ± 0.032 for the first, -0.006 ± 0.032 for the second.

RSVMTEEYKVPDGMVGFIIGRCGEQISRIQQESGCKIQIAPDSGGLPERSCMLTGTPESVQSAKRLLDQIVE [G22C] and RSVMTEEYKVPDGMVGFIIGRHGEQISRIQQESGCKIQIAPDSGGLPERSCMLTGTPESVQSAKRLLDQIVE [G22H] are within error of each other in abundance fitness: -0.103 ± 0.04 for the first, -0.021 ± 0.052 for the second.

Compared with RSVMTEEYKVPDGMVGFIIGRFGEQISRIQQESGCKIQIAPDSGGLPERSCMLTGTPESVQSAKRLLDQIVE [G22F], RSVMTEEYKVPDGMVGFIIGRQGEQISRIQQESGCKIQIAPDSGGLPERSCMLTGTPESVQSAKRLLDQIVE [G22Q] is higher in abundance fitness: -0.105 ± 0.041 for the first, -0.014 ± 0.036 for the second.

RSVMTEEYKVPDGMVGFIIGRNGEQISRIQQESGCKIQIAPDSGGLPERSCMLTGTPESVQSAKRLLDQIVE [G22N] and RSVMTEEYKVPDGMVGFIIGRDGEQISRIQQESGCKIQIAPDSGGLPERSCMLTGTPESVQSAKRLLDQIVE [G22D] are within error of each other in abundance fitness: 0.048 ± 0.047 for the first, 0.005 ± 0.045 for the second.

RSVMTEEYKVPDGMVGFIIGRMGEQISRIQQESGCKIQIAPDSGGLPERSCMLTGTPESVQSAKRLLDQIVE [G22M] and RSVMTEEYKVPDGMVGFIIGRPGEQISRIQQESGCKIQIAPDSGGLPERSCMLTGTPESVQSAKRLLDQIVE [G22P] are within error of each other in abundance fitness: -0.129 ± 0.039 for the first, -0.151 ± 0.035 for the second.

Going from RSVMTEEYKVPDGMVGFIIGRKGEQISRIQQESGCKIQIAPDSGGLPERSCMLTGTPESVQSAKRLLDQIVE [G22K] to RSVMTEEYKVPDGMVGFIIGRYGEQISRIQQESGCKIQIAPDSGGLPERSCMLTGTPESVQSAKRLLDQIVE [G22Y], the abundance fitness falls from -0.001 ± 0.037 to -0.137 ± 0.045.

RSVMTEEYKVPDGMVGFIIGRSGEQISRIQQESGCKIQIAPDSGGLPERSCMLTGTPESVQSAKRLLDQIVE [G22S] and RSVMTEEYKVPDGMVGFIISRGGEQISRIQQESGCKIQIAPDSGGLPERSCMLTGTPESVQSAKRLLDQIVE [G20S] are within error of each other in abundance fitness: -0.1 ± 0.028 for the first, -0.078 ± 0.027 for the second.

Going from RSVMTEEYKVPDGMVGFIIYRGGEQISRIQQESGCKIQIAPDSGGLPERSCMLTGTPESVQSAKRLLDQIVE [G20Y] to RSVMTEEYKVPDGMVGFIINRGGEQISRIQQESGCKIQIAPDSGGLPERSCMLTGTPESVQSAKRLLDQIVE [G20N], the abundance fitness rises from -0.279 ± 0.054 to -0.115 ± 0.048.

Going from RSVMTEEYKVPDGMVGFIIRRGGEQISRIQQESGCKIQIAPDSGGLPERSCMLTGTPESVQSAKRLLDQIVE [G20R] to RSVMTEEYKVPDGMVGFIIQRGGEQISRIQQESGCKIQIAPDSGGLPERSCMLTGTPESVQSAKRLLDQIVE [G20Q], the abundance fitness falls from -0.112 ± 0.024 to -0.178 ± 0.034.

Compared with RSVMTEEYKVPDGMVGFIIVRGGEQISRIQQESGCKIQIAPDSGGLPERSCMLTGTPESVQSAKRLLDQIVE [G20V], RSVMTEEYKVPDGMVGFIIWRGGEQISRIQQESGCKIQIAPDSGGLPERSCMLTGTPESVQSAKRLLDQIVE [G20W] is lower in abundance fitness: -0.253 ± 0.027 for the first, -0.321 ± 0.033 for the second.

RSVMTEEYKVPDGMVGFIITRGGEQISRIQQESGCKIQIAPDSGGLPERSCMLTGTPESVQSAKRLLDQIVE [G20T] and RSVMTEEYKVPDGMVGFIIGVGGEQISRIQQESGCKIQIAPDSGGLPERSCMLTGTPESVQSAKRLLDQIVE [R21V] are within error of each other in abundance fitness: -0.182 ± 0.032 for the first, -0.11 ± 0.21 for the second.

RSVMTEEYKVPDGMVGFIIGSGGEQISRIQQESGCKIQIAPDSGGLPERSCMLTGTPESVQSAKRLLDQIVE [R21S] and RSVMTEEYKVPDGMVGFIIGHGGEQISRIQQESGCKIQIAPDSGGLPERSCMLTGTPESVQSAKRLLDQIVE [R21H] are within error of each other in abundance fitness: 0.035 ± 0.14 for the first, -0.118 ± 0.12 for the second.

RSVMTEEYKVPDGMVGFIIGQGGEQISRIQQESGCKIQIAPDSGGLPERSCMLTGTPESVQSAKRLLDQIVE [R21Q] and RSVMTEEYKVPDGMVGFIIGPGGEQISRIQQESGCKIQIAPDSGGLPERSCMLTGTPESVQSAKRLLDQIVE [R21P] are within error of each other in abundance fitness: 0.046 ± 0.3 for the first, -0.027 ± 0.13 for the second.

RSVMTEEYKVPDGMVGFIIGEGGEQISRIQQESGCKIQIAPDSGGLPERSCMLTGTPESVQSAKRLLDQIVE [R21E] and RSVMTEEYKVPDGMVGFIIGCGGEQISRIQQESGCKIQIAPDSGGLPERSCMLTGTPESVQSAKRLLDQIVE [R21C] are within error of each other in abundance fitness: -0.251 ± 0.28 for the first, -0.119 ± 0.21 for the second.

— the Human Domainome abundance scans (Beltran et al. 2025)
